± gives the standard error. For part of these data: Fewer inactive variants are shown than the library holds.
B1: glmS ribozyme (parent)
chain: AUAAAAGCGCCAGAACUACAGAAAUGUAGUUGACGAGGAGGAGGUUUAUCGAAUUUUCGGCGGAUGCCUCCAAA

Tests used:
Details in all cases: with glucosamine-6-phosphate
[1] = variants of: B1; experiment: kcat; higher = faster cleavage; RNA array
Method in brief: (§1)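 Barcoded ribozyme variants on sequenced MiSeq chips were transcribed in situ by E. coli RNA polymerase and followed at 37 °C through a hybridised Cy3 probe. Glucosamine-6-phosphate at 40 μM to 10 mM in HEPES/KCl/Mg(OAc)2 buffer was flowed in, and tiles were imaged over ~14 h. Signals were normalised to baseline and to non-cleaving reference variants, and per-tile medians were fit to one- or two-exponential decays to give kobs. Weighted Michaelis–Menten fits across concentrations gave kcat and KM.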

[2] = variants of: B1; experiment: KM; higher = weaker cofactor use; RNA array
Method in brief: as §1

[3] = variants of: B1; experiment: self-cleavage kobs at 40 uM GlcN6P; higher = faster cleavage; RNA array
Method in brief: as §1

[4] = variants of: B1; experiment: self-cleavage kobs at 160 uM GlcN6P; higher = faster cleavage; RNA array
Method in brief: as §1

[5] = variants of: B1; experiment: self-cleavage kobs at 10000 uM GlcN6P; higher = faster cleavage; RNA array
Method in brief: as §1

[6] = variants of: B1; experiment: self-cleavage kobs at 640 uM GlcN6P; higher = faster cleavage; RNA array
Method in brief: as §1

[7] = variants of: B1; experiment: self-cleavage kobs at 2500 uM GlcN6P; higher = faster cleavage; RNA array
Method in brief: as §1

Variant | kcat [1] | KM [2] | self-cleavage kobs at 40 uM GlcN6P [3] | self-cleavage kobs at 160 uM GlcN6P [4] | self-cleavage kobs at 10000 uM GlcN6P [5] | self-cleavage kobs at 640 uM GlcN6P [6] | self-cleavage kobs at 2500 uM GlcN6P [7]
A15C G44A | 2.81e-05 ± 1.7e-07 s⁻¹ | 3920 ± 72 µM | < 1e-05 s⁻¹ | < 1e-05 s⁻¹ | 2.02e-05 ± 9.6e-06 s⁻¹ | – | –
G41A U56G | 0.000193 ± 1.8e-05 s⁻¹ | 1740 ± 310 µM | – | – | 0.000169 ± 4.7e-05 s⁻¹ | 5.1e-05 ± 1.4e-05 s⁻¹ | 0.000109 ± 3.5e-05 s⁻¹
A12G A64G | 0.000701 ± 0.00021 s⁻¹ | 2560 ± 1100 µM | – | 6.59e-05 ± 1.7e-05 s⁻¹ | 0.000537 ± 0.00017 s⁻¹ | 0.000128 ± 1.7e-05 s⁻¹ | 0.000367 ± 5.3e-05 s⁻¹
C50A A52C | < 1e-05 s⁻¹ | 2730 ± 690 µM | < 1e-05 s⁻¹ | < 1e-05 s⁻¹ | – | < 1e-05 s⁻¹ | –
A39G C58U | 7.06e-05 ± 1.1e-06 s⁻¹ | 2990 ± 150 µM | < 1e-05 s⁻¹ | – | 5.43e-05 ± 8.5e-06 s⁻¹ | – | 3.24e-05 ± 1.1e-05 s⁻¹
G13C C70A | 1.11e-05 ± 3.3e-06 s⁻¹ | – | – | – | – | – | –
U46C U65G | 0.000138 ± 2.3e-05 s⁻¹ | – | – | – | 0.000113 ± 1.5e-05 s⁻¹ | 2.77e-05 ± 1.3e-05 s⁻¹ | 0.000117 ± 2.4e-05 s⁻¹
U57A C68U | 0.00017 ± 1.9e-05 s⁻¹ | 2500 ± 560 µM | – | – | 0.000143 ± 2.2e-05 s⁻¹ | 3.78e-05 ± 8.1e-06 s⁻¹ | 7.94e-05 ± 1e-05 s⁻¹
G59U G66A | 2.67e-05 ± 2.5e-07 s⁻¹ | 3110 ± 100 µM | – | – | – | – | –
A42U U45A | 0.000149 ± 2.4e-05 s⁻¹ | 1500 ± 680 µM | – | – | 0.000123 ± 1.6e-05 s⁻¹ | 3.93e-05 ± 1e-05 s⁻¹ | 0.000134 ± 2.6e-05 s⁻¹
A42U U45G | 0.00034 ± 6.6e-05 s⁻¹ | 1880 ± 720 µM | – | 4.68e-05 ± 1.4e-05 s⁻¹ | 0.000278 ± 4.1e-05 s⁻¹ | 7.31e-05 ± 1.5e-05 s⁻¹ | 0.000225 ± 3.8e-05 s⁻¹
A48C U54A | 0.000452 ± 4.8e-05 s⁻¹ | 1720 ± 350 µM | – | 3.98e-05 ± 2e-05 s⁻¹ | 0.000371 ± 6.6e-05 s⁻¹ | 0.000118 ± 2.2e-05 s⁻¹ | 0.000342 ± 8.9e-05 s⁻¹
G7U G38C | < 1e-05 s⁻¹ | – | < 1e-05 s⁻¹ | – | < 1e-05 s⁻¹ | < 1e-05 s⁻¹ | –
G13U U46G | 0.000174 ± 4.9e-06 s⁻¹ | 1460 ± 120 µM | – | – | 0.000153 ± 2.1e-05 s⁻¹ | 5.44e-05 ± 1.5e-05 s⁻¹ | 0.000107 ± 2.4e-05 s⁻¹
C11U A14U G38A C50U U65G | 2.42e-05 ± 9.7e-06 s⁻¹ | – | – | – | – | – | –
C50U A64G | 0.000283 ± 5e-05 s⁻¹ | – | – | – | 0.000141 ± 1.7e-05 s⁻¹ | 2.41e-05 ± 1e-05 s⁻¹ | 5.38e-05 ± 7.8e-06 s⁻¹
G63U C68G | 1.09e-05 ± 2.8e-06 s⁻¹ | – | < 1e-05 s⁻¹ | – | – | – | < 1e-05 s⁻¹

Variant | kcat [1] | KM [2] | self-cleavage kobs at 40 uM GlcN6P [3] | self-cleavage kobs at 160 uM GlcN6P [4] | self-cleavage kobs at 10000 uM GlcN6P [5] | self-cleavage kobs at 640 uM GlcN6P [6] | self-cleavage kobs at 2500 uM GlcN6P [7]
C16G U57A | 5.68e-05 ± 5.7e-06 s⁻¹ | 1570 ± 780 µM | – | – | 4.85e-05 ± 8.9e-06 s⁻¹ | – | 3.99e-05 ± 1.7e-05 s⁻¹
A14C G40C | 0.000718 ± 6.3e-05 s⁻¹ | 3650 ± 530 µM | – | 2.58e-05 ± 1.1e-05 s⁻¹ | 0.000533 ± 7.6e-05 s⁻¹ | 0.000114 ± 1.8e-05 s⁻¹ | 0.000285 ± 3.3e-05 s⁻¹
A12G U47A | 0.00138 ± 0.00029 s⁻¹ | 5500 ± 1600 µM | – | – | 0.000864 ± 0.00013 s⁻¹ | 0.000152 ± 1.9e-05 s⁻¹ | 0.000455 ± 7.1e-05 s⁻¹
A14U U31A | 0.0165 ± 0.0068 s⁻¹ | – | 0.000492 ± 4e-05 s⁻¹ | 0.00191 ± 0.00038 s⁻¹ | 0.028 ± 0.0038 s⁻¹ | 0.00488 ± 0.00072 s⁻¹ | 0.00761 ± 0.0014 s⁻¹
A53U G66U | 0.00118 ± 0.00016 s⁻¹ | 2320 ± 590 µM | – | 6.64e-05 ± 1.7e-05 s⁻¹ | 0.000904 ± 0.00012 s⁻¹ | 0.000307 ± 7.4e-05 s⁻¹ | 0.000716 ± 0.00012 s⁻¹
C11U A14C | 0.000773 ± 0.00026 s⁻¹ | – | – | 8.34e-05 ± 1.7e-05 s⁻¹ | 0.000712 ± 8.5e-05 s⁻¹ | 0.000151 ± 2.1e-05 s⁻¹ | 0.000275 ± 5.2e-05 s⁻¹
C68U C70U | 2.24e-05 ± 7.8e-06 s⁻¹ | – | – | – | 1.88e-05 ± 3.8e-06 s⁻¹ | – | 3.68e-05 ± 7.6e-06 s⁻¹
A42U C70A | 0.00013 ± 6.8e-06 s⁻¹ | 813 ± 290 µM | – | – | 0.00012 ± 9.1e-06 s⁻¹ | – | 9.98e-05 ± 1.2e-05 s⁻¹
A15U A53U | 0.00543 ± 0.0013 s⁻¹ | 2950 ± 940 µM | 9.26e-05 ± 9.9e-06 s⁻¹ | 0.000245 ± 3.8e-05 s⁻¹ | 0.0042 ± 0.00042 s⁻¹ | 0.000755 ± 0.00012 s⁻¹ | 0.00314 ± 0.00055 s⁻¹
G38C G51C | 1.04e-05 ± 4.5e-06 s⁻¹ | – | – | – | – | – | –
A39C G66U | 0.00114 ± 0.00017 s⁻¹ | 3090 ± 910 µM | – | 8.13e-05 ± 2.3e-05 s⁻¹ | 0.000908 ± 9.9e-05 s⁻¹ | 0.000198 ± 3.9e-05 s⁻¹ | 0.000424 ± 8.2e-05 s⁻¹
A14U C70U C71G | 4.59e-05 ± 1.2e-05 s⁻¹ | – | – | – | 3.81e-05 ± 1.8e-05 s⁻¹ | 6.53e-05 ± 1.7e-05 s⁻¹ | 3.73e-05 ± 1.3e-05 s⁻¹
C11G U30C U65G U69A | 2.81e-05 ± 7.1e-06 s⁻¹ | – | – | – | – | – | –
C10A A39G | < 1e-05 s⁻¹ | – | – | < 1e-05 s⁻¹ | – | < 1e-05 s⁻¹ | –
G32A A53G | 0.00285 ± 0.00095 s⁻¹ | 1980 ± 950 µM | 5.52e-05 ± 9e-06 s⁻¹ | 0.000222 ± 3.2e-05 s⁻¹ | 0.00294 ± 0.00036 s⁻¹ | 0.00114 ± 0.0002 s⁻¹ | 0.00106 ± 0.00021 s⁻¹
A64U C71U | 0.000158 ± 5.9e-05 s⁻¹ | – | – | – | 0.000112 ± 1.6e-05 s⁻¹ | 3.94e-05 ± 1.3e-05 s⁻¹ | 3.79e-05 ± 1.6e-05 s⁻¹

Source: the supplement of paper PMC7125110
